Reference: a protein production outcome set (Wang et al. 2014)

Experiment: label from the status in PepcDB records

Sequence | protein production
MIEFITPRTFLFSTQTVVFSVLLFVFYIFYRTFSRKYVKYWLMSIGALNFSYLIKSFVPYSSRNFSSDSWQILAELLLQIFQYSFLIFLIFGVYIAKNNKELSKEILSGGIGAIIILSVISTMFFAFDPSQAFNHFYLTISLPSFIFGCTFLSLACYLLFDKKSYFSSQVLMYFSAIFGLRYLMHSFISIVALTEPWFRQLELFLLYFDVAAHSILGFTLLIWMQGAERFATLSAISRAQYLGKHDSLTGALNREQVMAKLSDKMQELTHANKINKNQMKLAVFLIDIKQFKFINDTYGLKVGDFILGEIASRLNHSVFIPQAVGRLSGDSFMFVIEFEQISHVDRAVNHIHELIERCFRYEQQEITIQGSVGYCFYPDDADKSEDLLQKSNLALHHAETNNIPSVAFEEGMQAQGRHLVLMEKQLRSAIANDEFVLYYQPQLNLFTNKLEGVEALVRWQHPEKGLLSPGDFLTELETLGMHNEFDNYILVKACQASERWFKLYQRRVAIAVNITAVEFQNEQLVTNIQMLLHKYGIPSKYIELEITENVVMTDITRAMDSIVKLQSMGIKVSIDDFGTGYSSLAYLRDLPIDKIKIDRSFINEVAINDSDLTIVKSMVDLSHGLGKRVLAEGVETIEQLNLLRHLGCDAVQGYFISKPLPESKLVRYLKKK | failed
MHKEIAKELLLLAGGKNNIISISHCTTRLRFDVKDETKIDIHAIENLQGVQGTFFRYGLFQIIFGAGVVNKIYKEVVHVWETAPSEEPVHQKKASRKLNPAAAFAKTLSDI | failed
MSQDKQMKAVSPLLQRVINISSIVGGVGSLIFCIWAYQAGILQSKETLSAFIQQAGIWGPPLFIFLQILQTVVPIIPGALTSVAGVFIYGHIIGTIYNYIGIVIGCAIIFYLVRLYGAAFVQSVVSKRTYDKYIDWLDKGNRFDRFFIFMMIWPISPADFLCMLAALTKMSFKRYMTIIILTKPFTLVVYTYGLTYIIDFFWQML | failed
MGRYKDETPAVRVYTVCDESRYMIVRNVPALGCGDDLMRLFMTYGEVEEFAKRKLDESSFLGNRLQISYAPEYENVNDTKDKLESRRKEVLARLNPQKEKSTSQVTKLAGPALTQTDNVSSQRREMEYQFHRGNAPVTRVSSDQEYFASSSMNQTVKTVREKLNKTREENISSLSHCKQIEESGNQKRLQPSSQTQPEESGNQKRLQPSSQIQPDLKRTRVDNRRRI | failed
MMINMNRKITTYQWWIATLAIVSIFLIILDFAAVIDINIPTSKWFWINDGIVVYFAINYFYHLSKSNDKKTFFKNHIYDLLIIIPIGMLFVVLNAFNLSSLVSYLRLLRLIRLAGLMGKLRQIFHTNGLWYVVFFTITFLLVGAEAFAISEHVSLDTAFWWVLSTASTVGYDGIFGKTIPPHSIVGKFVTLVMMLLGIGIVGMLTSSITSYLVRRTNGANTLETHDNIELILKKLDDIEQQNKELTYQNKKLQAEIQTLKGEKNPLMSYIR | failed
MVSLIAKIHRRRAYLTVIAIMTFIVRLIPSRNFTLAGNDAYIHHDIVMRIAREGLGIIGHDIPSLMGLKAYAYPPLFHVMGYGLYLLFRSELVFFFISPLLGTATVLVIYKVARETFEREEVALLSAFLFSMVPSFVARTSVFIPESMGLLLTSGILYMLVKYLKTTPGYPDIDKFELKAFSNLFRGDLRYILGGLALFVIYLFTHRGWVFLLIALLLLAVTFLTPSFRKRPLEFGLIFLLIGAGIIEFITFAARFQSVPVTILGFPKWMGVLQLILGIYGASLLLRSKNPIHRFLIIWATAFMIIGTYSFRFRDPYAAIPLSLMGGYAFSEVKGRLYASKRFKSYSIMKRDVKPFLRTGIFALLVLMPLAQGAAIAYTGVTTPSPQQNAAFRWINDNTPQDAVFLSAIEDSYSLIGNTHRRDVLLWKTVYEGFMGSAPSLKENTMTRDEVSAIFQSSIPSETSYLLERNNISYIYISKSMHMKGIGLQLPVDPHFKTCFVSGDVSVYRYIKNPGIQSNYSSITVNGEDGKVVEFIEKFWNGYSQGTEPSHQGVSTL | failed
MTRAKDRLSAVQVKQSPAGKYADGGGLWLVKSSKDTGKWVLRAVVHGRRREMGLGSVSDVGLAEARKSADKWRTVVRAGGDPIKERARQKREAARNLHLLKHVAEDCFDAIKGNLRGQGKAGRWFSPLELHVLPKLGKVPVADLDQVDIRDTLKPLRDTKFETMRKALNRLDMVVRHAAALGLDVDTQVVDKAKALIGASQHKAVNIPAMPWHEVPGFYQSLSVGSVTHLALRLLILTGVRSRPLRFLRVDHIAGDVWTIPADMMKGREGATGDFRVPLSKEALAVIEQAKRHARDGFLFPSLRRGVVSDMTLSRYMERRKLTARPHGFRSSLRDWLAECTDAPHEVAETVLGHKVGGAVERAYRRTDFIDQRAKLMERWADHCKVVQLVSAV | failed
MNLFGQKDRGNHVSGVDRGKVIMYGLSTCVWCKKTKKLLTDLGVDFDYVYVDRLEGKEEEEAVEEVRRFNPSVSFPTTIINDEKAIVGFKEKEIRESLGF | not failed
